Experimental data published in patent US7063946B2, “Methods, reagents, kits and apparatus for protein function analysis” (Meso Scale Technologies, LLC., priority 2001, dated 2006).

B1: 4237375: IMAGE clone protein: βTRCP2 (protein)
chain: MEPDSVIEDKTIELMCSVPRSLWLGCANLVESMCALSCLQSMPSVRCLQISNGTSSVIVSRKRPSEGNYQKEKDLCIKYFDQWSESDQVEFVEHLISRMCHYQHGHINSYLKPMLQRDFITALPEQGLDHIAENILSYLDARSLCAAELVCKEWQRVISEGMLWKKLIERMVRTDPLWKGLSERRGWDQYLFKNRPTDGPPNSFYRSLYPKIIQDIETIESNWRCGRHNLQRIQCRSENSKGVYCLQYDDEKIISGLRDNSIKIWDKTSLECLKVLTGHTGSVLCLQYDERVIVTGSSDSTVRVWDVNTGEVLNTLIHHNEAVLHLRFSNGLMVTCSKDRSIAVWDMASATDITLRRVLVGHRAAVNVVDFDDKYIVSASGDRTIKVWSTSTCEFVRTLNGHKRGIACLQYRDRLVVSGSSDNTIRLWDIECGACLRVLEGHEELVRCIRFDNKRIVSGAYDGKIKVWDLQAALDPRAPASTLCLRTLVEHSGRVFRLQFDEFQIISSSHDDTILIWDFLNVPPSAQNETRSPSRTYTYISR
B2: 4419252: IMAGE clone protein: PLCγ (protein)
chain: MAGAASPCANGCGPGAPSDAEVLHLCRSLEVGTVMTLFYSKKSQRPERKTFQVKLETRQITWSRGADKIEGAIDIREIKEIRPGKTSRDFDRYQEDPAFRPDQSHCFVILYGMEFRLKTLSLQATSEDEVNMWIKGLTWLMEDTLQAPTPLQIERWLRKQFYSVDRNREDRISAKDLKNMLSQVNYRVPNMRFLRERLTDLEQRSGDITYGQFAQLYRSLMYSAQKTMDLPFLEASTLRAGERPELCRVSLPEFQQFLLDYQGELWAVDRLQVQEFMLSFLRDPLREIEEPYFFLDEFVTFLFSKENSVWNSQLDAVCPDTMNNPLSHYWISSSHNTYLTGDQFSSESSLEAYARCLRMGCRCIELDCWDGPDGMPVIYHGHTLTTKIKFSDVLHTIKEHAFVASEYPVILSIEDHCSIAQQRNMAQYFKKVLGDTLLTKPVEISADGLPSPNQLKRKILIKHKKLAEGSAYEEVPTSMMYSENDISNSIKNGILYLEDPVNHEWYPHYFVLTSSKIYYSEETSSDQGNEDEEEPKEVSSSTELHSNEKWFHGKLGAGRDGRHIAERLLTEYCIETGAPDGSFLVRESETFVGDYTLSFWRNGKVQHCRIHSRQDAGTPKFFLTDNLVFDSLYDLITHYQQVPLRCNEFEMRLSEPVPQTNAHESKEWYHASLTRAQAEHMLMRVPRDGAFLVRKRNEPNSYAISFRAEGKIKHCRVQQEGQTVMLGNSEFDSLVDLISYYEKHPLYRKMKLRYPINEEALEKIGTAEPDYGALYEGRNPGFYVEANPMPTFKCAVKALFDYKAQREDELTFIKSAIIQNVEKQEGGWWRGDYGGKKQLWFPSNYVEEMVNPVALEPEREHLDENSPLGDLLRGVLDVPACQIAIRPEGKNNRLFVFSISMASVAHWSLDVAADSQEELQDWVKKIREVAQTADARLTEGKIMERRKKIALELSELVVYCRPVPFDEEKIGTERACYRDMSSFPETKAEKYVNKAKGKKFLQYNRLQLSRIYPKGQRLDSSNYDPLPMWICGSQLVALNFQTPDKPMQMNQALFMTGRHCGYVLQPSTMRDEAFDPFDKSSLRGLEPCAISIEVLGARHLPKNGRGIVCPFVEIEVAGAEYDSTKQKTEFVVDNGLNPVWPAKPFHFQISNPEFAFLRFVVYEEDMFSDQNFLAQATFPVKGLKTGYRAVPLKNNYSEDLELASLLIKIDIFPAKENGDLSPFSGTSLRERGSDASGQLFHGRAREGSFESRYQQPFEDFRISQEHLADHFDSRERRAPRRTRVNGDNRL

Experiments:
IkBa-24pp (SEQ ID NO: 1) = molecular target: T1, IkBa-24pp (SEQ ID NO: 1) (Homo sapiens, UniProt P25963); experiment: Single-well 4-spot assay for multiple peptide-protein interactions; type: binding
T1 construct: two phosphoserines in the DSGLDS motif (chemical modification); purchased New England Peptide, Fitchburg Mass; host or cells: chemical synthesis
T1 sequence (P25963 with tags, fused parts or gaps limits assumed): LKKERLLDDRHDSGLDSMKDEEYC
From the text: (§1) Four phosphopeptides and their cognate binding proteins (Table 14) were selected for an integrated assay of multiple peptide-protein interaction in 4-spot Multi-Array plates. The IkBa-24pp peptide and its binding protein, βTRCP, are described in Example 10. The remaining peptides are derived from the carboxyl terminus of the EGF receptor. These phosphotyrosine containing peptides are recognized by different adaptor or effecter proteins of the receptor tyrosine kinase signaling pathway.
These four peptides were coupled to BSA carrier protein through cystine residue. After purification on PD-10 gel filtration columns, the peptide-BSA conjugates were then deposited on the assay domains of a 4-spot multi-array IPR plate (i.e., in one of the four exposed regions of working electrode defined by the dielectric layer) with an automated micro-dispensing system (Bio-Dot Dispenser, Bio-Dot, Irvine Calif.). Typically about 120 fmole of peptide:BSA conjugate in 0.25 μl was deposited on each spot of a 4-spot multi-array IPR plate. These plates are dried then used or stored under desiccated conditions. […] Thus, in this assay format, each peptide not only serves as the capture agent for assaying specific interaction with its binding protein, but also at the same time serves as a control for other peptide-protein interaction to be determined in the same well. […]

[1] = molecular target: T2, EGFR-pY992 (SEQ ID NO: 5) (Homo sapiens, UniProt P00533); experiment: as above; type: binding; details: 4-spot plate
T2 construct: phosphotyrosine at Tyr992 (chemical modification); purchased New England Peptide, Fitchburg Mass; host or cells: chemical synthesis
From the text: as §1, with “The remaining peptides are derived from the carboxyl terminus of the EGF receptor.” left out
These four peptides were coupled to BSA carrier protein through cystine residue. After purification on PD-10 gel filtration columns, the peptide-BSA conjugates were then deposited on the assay domains of a 4-spot multi-array IPR plate (i.e., in one of the four exposed regions of working electrode defined by the dielectric layer) with an automated micro-dispensing system (Bio-Dot Dispenser, Bio-Dot, Irvine Calif.). […] These plates are dried then used or stored under desiccated conditions. A few hours prior to usage the plates were rehydrated and blocked with 3% BSA in PBS. […] The in vitro translated and biotin-labeled proteins were then assayed in the 4-spot multi-array IPR plates under conditions described in Example 10.

[2] = molecular target: T3, pY1068 peptide (SEQ ID NO: 7) (Homo sapiens, UniProt P00533); experiment: 96-well screen for phosphopeptide binding proteins, 7-spot IPR plates; details: two steps of normalization; top 9 clones
T3 construct: phosphotyrosine at Tyr1068 (chemical modification); purchased New England Peptide, Fitchburg Mass; host or cells: chemical synthesis
Description: (§2) A screen was conducted using 7-spot IPR plates. The 7 spot NPT IPR plates are described in more detail in copending Provisional Application No. 60/301,932 (entitled “Assay Plates, Reader Systems and Methods for Luminescence Test Measurements”, filed on Jun. 29, 2001, hereby incorporated by reference) and particularly in the description of Plate Type D in Example 6.1 (NPT IPR plate) and U.S. application Ser. Nos. 10/185,274 and 10/185,363, filed Jun. 28, 2002, each hereby incorporated by reference. These plates consist of a 96 wells with 7 zones (spots) for the immobilization of proteins or other reagents. Each spot was coated with BSA conjugated to either a single phosphopeptide or multiple phosphopeptides.
(§3) The plates were prepared essentially as described in example 12. The seven spots supported, respectively, the following BSA conjugates IkB, pY992, pY1068, pY1148, Myc, “A”, and “6-P”. “A” refers to a conjugate of BSA with multiple peptides: IkB, pY1148, Myc which were then coupled to BSA. “6-P” refers to a conjugate of BSA with the following multiple peptides: IkB, pY1148, pY992, pY1068, Smad3C.
(§4) For the assay, 4 ul from TnT reaction product described above were added to the coated plate containing 50 μl of binding buffer supplemented with 50 ng/well Ru-Streptavidin. The binding reaction was allowed to proceed at room temperature for 1 hour with constant shaking. […] The ECL signals were measured using an imaging plate reader (IPR). The raw data from the IPR reader was then normalized using two steps of normalization. The first round was based on the 50 lowest values for a given specific spot.

[3] = molecular target: T4, pY992 peptide (SEQ ID NO: 5) (Homo sapiens, UniProt P00533); experiment: as above; details: two steps of normalization; top 9 clones
T4 construct: phosphotyrosine at Tyr992 (chemical modification); purchased New England Peptide, Fitchburg Mass; host or cells: chemical synthesis
Description: as §2, §3, §4

pY1148 (SEQ ID NO: 9) = molecular target: T5, pY1148 (SEQ ID NO: 9) (Homo sapiens, UniProt P00533); experiment: as above; details: two steps of normalization; top 9 clones
T5 construct: phosphotyrosine at Tyr1148 (chemical modification); purchased New England Peptide, Fitchburg Mass; host or cells: chemical synthesis
Description: as §2, §3, §4

Molecule	ECL signal, spot 1 IkBa-24pp (IkBa-24pp (SEQ ID NO: 1); 4-spot plate)	fold higher ECL signal from spot 1 than with TnT mixtures containing no exogenous DNA (IkBa-24pp (SEQ ID NO: 1); spot 1 (IkBa-24pp-BSA conjugate))	ECL signal, spot 4 EGFR-pY992 [1]	normalized ECL signal, pY1068 spot [2]	normalized ECL signal, pY992 spot [3]	normalized ECL signal, pY1148 spot (pY1148 (SEQ ID NO: 9))
B1	5040	100 fold	–	–	–	–
B2	–	–	1404	55	10	4
